Laboratory results from article PMC11425205, “MdSINA2‐MdNAC104 Module Regulates Apple Alkaline Resistance by Affecting γ‐Aminobutyric Acid Synthesis and Transport”.
Positions count from the first letter of the chain named.

T1: MdNAC104 (Malus domestica (apple)?, UniProt D9ZJ88 1-204)
T1 sequence: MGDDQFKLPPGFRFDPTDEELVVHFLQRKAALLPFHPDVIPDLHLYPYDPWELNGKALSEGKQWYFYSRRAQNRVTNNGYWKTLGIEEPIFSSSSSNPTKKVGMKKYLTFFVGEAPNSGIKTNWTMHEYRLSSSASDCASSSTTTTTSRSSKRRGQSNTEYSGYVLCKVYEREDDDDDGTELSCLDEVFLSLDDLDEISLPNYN

B1: MdGAD1 mutant probe 1 (dsDNA)
DNA 1: GCGCTGCACCTAAAAATTCCATTTCTGGAC
DNA 2: GTCCAGAAATGGAATTTTTAGGTGCAGCGC
B2: MdGAD1 mutant probe 3 (dsDNA)
DNA 1: AAAAAATGGGGCAAAATGGGCTTCACTGTC
DNA 2: GACAGTGAAGCCCATTTTGCCCCATTTTTT
B3: MdGAD1 mutant probe 2 (dsDNA)
DNA 1: CAAACCATTTGCAAAATCCTTAAAGCGATT
DNA 2: AATCGCTTTAAGGATTTTGCAAATGGTTTG
B4: MdGAD1 probe 3 (dsDNA)
DNA 1: B2 DNA 1 with A13C, A15C, A16G
DNA 2: B2 DNA 2 with T15C, T16G, T18G
B5: MdGAD1 probe 1 (dsDNA)
DNA 1: B1 DNA 1 with A13C, A15C, A16G
DNA 2: B1 DNA 2 with T15C, T16G, T18G
B6: MdALMT13 probe 3 (dsDNA)
DNA 1: CTTTTGCATTCAGCACGCACTCGCAAAACC
DNA 2: GGTTTTGCGAGTGCGTGCTGAATGCAAAAG
B7: MdALMT13 probe 2 (dsDNA)
DNA 1: CTTATTTCAAAAACACGGGTGAACAGTAAA
DNA 2: TTTACTGTTCACCCGTGTTTTTGAAATAAG
B8: MdALMT13 probe 4 (dsDNA)
DNA 1: ATGTATATATAAACACGATATCTCCCTTCC
DNA 2: GGAAGGGAGATATCGTGTTTATATATACAT
B9: MdGAD1 probe 2 (dsDNA)
DNA 1: B3 DNA 1 with A13C, A15C, A16G
DNA 2: B3 DNA 2 with T15C, T16G, T18G

target: T1, MdNAC104; assay: EMSA; LightShift Chemiluminescent EMSA Kit (Thermo) per manufacturer; buffer, salt, pH and temperature not stated; settings: protein: recombinant; tags: His (pET-32a vector); blunt

Row | Binder | binding result
1 | B1 | no binding
2 | B2 | no binding
3 | B3 | no binding

same assay, conditions: protein: recombinant; tags: His (pET-32a vector); label: 5' biotin; blunt

Row | Binder | binding result
4 | B4 | binds
5 | B5 | binds
6 | B6 | binds
7 | B7 | binds
8 | B8 | binds
9 | B9 | binds
